Values quoted from earlier work in publication PMC4554922.
pKd: −log10 of the molar value.

Target: SAS-6 head domain (UniProt Q6UVJ0)

pKd: 4.10
Substance: SAS-6 head domain (from UniProt Q6UVJ0)
